From patent CN108753792A (UNIV SUN YAT SEN, dated 2018)

How the values were obtained:
MBP [1] = biological target: T1, MBP (UniProt P0AEX9 27-396 = MBP); assay: Native-PAGE mobility shift, Coomassie staining (Fig. 6D)
MBP [2] = biological target: T1, MBP; assay: Native-PAGE mobility shift, Coomassie staining (Fig. 6C)

B1: 绿色荧光蛋白(GFP)纳米抗体 E6 (VHH)
VHH: DVQLQESGGGLVQAGGSLRLSCAASGRFVSSYIMGWFRQAPGKEREAVASILRSVDATYYADSVKGRFTISRDNDKNTVYLQMNSLKPEDTAVYYCATRARGYFGSFGRLWPDDRQYDYWGQGTQVTVSS
modifications: biotinylated (Sulfo-NHS-LC-biotin kit) in the ELISA of Example 5; not biotinylated in the Native-PAGE of Example 6
notes: Printed molecular weight 18.4 KDa; also called E6抗体; pBAD24-Flag-E6-His; not shown: Flag tag from vector pBAD24-Flag-His; C-terminal 6xHis tag from vector pBAD24-Flag-His
Q: Does B1 bind (MBP [1])?
A: no binding (tested: 3μg MBP和3μg纯化的纳米抗体)

B2: 绿色荧光蛋白(GFP)纳米抗体 A12 (VHH)
VHH: DVQLQESGGGLVQAGGSLRLSCAASGGTFSILSLGWFRQAPGKEREFVAAISRSEGSTDYADFVKGRFMISRENAKNTAYLQMNSLKPEDTAVYFCAASYARRLSTTASRVLYWGQGTQVTVSS
modifications: biotinylated (Sulfo-NHS-LC-biotin kit) in the ELISA of Example 5; not biotinylated in the Native-PAGE of Example 6
notes: Printed molecular weight 15.7 KDa; also called A12抗体; pADL-10b-A12-His; not shown: C-terminal 6xHis tag from vector pADL-10b-His
Q: Does B2 bind (MBP [2])?
A: no binding (tested: 3μg MBP和3μg纯化的纳米抗体)

B3: 绿色荧光蛋白(GFP)纳米抗体 D5 (VHH)
VHH: DVQLQESGGGLVQPGGSLRLSCAASGIIFSIYDMGWYRQAPGKQRELVALITIHRSTNYEDSVKGRFTISRDNAKNTVYLQMNSLKPEDTAVYYCNANGVNYQYWGQGTQVTVSS
modifications: biotinylated (Sulfo-NHS-LC-biotin kit) in the ELISA of Example 5; not biotinylated in the Native-PAGE of Example 6
notes: Printed molecular weight 16.6 KDa; also called D5抗体; D5-biotin; not shown: Flag tag from vector pBAD24-Flag-His; C-terminal 6xHis tag from vector pBAD24-Flag-His
Q: Does B3 bind (MBP [1])?
A: no binding (tested: 3μg MBP和3μg纯化的纳米抗体)
